Substitutions are numbered along the chain they refer to. One block for each binder: values may come before it.
Key:
[1] = molecular target: Recombinant human his-tagged IGF 1R extracellular domain protein (human) (UniProt P08069); assay: SPR, captured antibody, pH 7.4
[2] = molecular target: Recombinant human his-tagged IGF 1R extracellular domain protein (human) (UniProt P08069); assay: SPR, captured antibody, dissociation at pH 6

B1: VRDN-03102 (antibody, V domains shown)
VH: QVQLVESGGGVVQPGRSLRLSCAASGFTFSDYTMHWVRQAPGKGLEWVAIIWFDGSSKYYVDSVKGRFTISRDNSKNTLYLQMNSLRAEDTAVYYCARELGRRYFDIWGRGTLVTVSS
VL: EIVLTQSPATLSLSPGERATLSCRASQGVSSYLAWYQQKPGQAPRLLIYGASTRATGIPARFSGSGSGTDFTLTISSLEPEDFAVYYCQQRSRWPPWTFGQGTKLEIK
Kd [1]: 2.68 nM
koff [1]: 0.000173 s⁻¹
kon [1]: 64500 M⁻¹ s⁻¹
Kd [2]: 1.46 nM
koff [2]: 0.000319 s⁻¹
kon [2]: 218000 M⁻¹ s⁻¹

B3: VRDN-03109 (antibody, V domains shown)
VH: B1 VH with D31S, T33S, V61P, D62G
VL: B1 VL with L4M, L13V, D70E, E79Q, P80S
Kd [1]: 6.74 nM
koff [1]: 0.000286 s⁻¹
kon [1]: 42500 M⁻¹ s⁻¹
Kd [2]: 2.72 nM
koff [2]: 0.00049 s⁻¹
kon [2]: 180000 M⁻¹ s⁻¹

B4: VRDN-03114 (antibody, V domains shown)
VH: B1 VH with Y32H, T33Y, H35D
VL: B1 VL with L4M, L13V, D70E, E79Q, P80S
Kd [1]: 33.4 nM
koff [1]: 0.000991 s⁻¹
kon [1]: 29700 M⁻¹ s⁻¹
Kd [2]: 0.0565 nM
koff [2]: 6.9e-06 s⁻¹
kon [2]: 122000 M⁻¹ s⁻¹

B5: VRDN-03104 (antibody, V domains shown)
VH: B1 VH with Y32H, T33Y, H35D, V61A
VL: B1 VL
Kd [1]: 3.05 nM
koff [1]: 0.000259 s⁻¹
kon [1]: 85000 M⁻¹ s⁻¹
Kd [2]: 1.63 nM
koff [2]: 0.000283 s⁻¹
kon [2]: 173000 M⁻¹ s⁻¹

B6: VRDN-03108 (antibody, V domains shown)
VH: B1 VH with D31S, T33S
VL: B1 VL with L4M, L13V, D70E, E79Q, P80S
Kd [1]: 3.97 nM
koff [1]: 0.000195 s⁻¹
kon [1]: 49000 M⁻¹ s⁻¹
Kd [2]: 1.85 nM
koff [2]: 0.000413 s⁻¹
kon [2]: 224000 M⁻¹ s⁻¹

B7: VRDN-03110 (antibody, V domains shown)
VH: B1 VH with V61A
VL: B1 VL with L4M, L13V, D70E, E79Q, P80S
Kd [1]: 3.45 nM
koff [1]: 0.000209 s⁻¹
kon [1]: 60500 M⁻¹ s⁻¹
Kd [2]: 1.7 nM
koff [2]: 0.000378 s⁻¹
kon [2]: 223000 M⁻¹ s⁻¹

B8: VRDN-03113 (antibody, V domains shown)
VH: B1 VH with Y32H, T33Y, H35D, V61A
VL: B1 VL with L4M, L13V, D70E, E79Q, P80S
Kd [1]: 2.76 nM
koff [1]: 0.00388 s⁻¹
kon [1]: 1.41e+06 M⁻¹ s⁻¹
Kd [2]: 2.48 nM
koff [2]: 0.00191 s⁻¹
kon [2]: 771000 M⁻¹ s⁻¹

B9: VRDN-03106 (antibody, V domains shown)
VH: B1 VH with Y32H, T33Y, H35D, V61P, D62G
VL: B1 VL
Kd [1]: 16.1 nM
koff [1]: 0.00105 s⁻¹
kon [1]: 65100 M⁻¹ s⁻¹
Kd [2]: 1.81 nM
koff [2]: 0.00218 s⁻¹
kon [2]: 1.2e+06 M⁻¹ s⁻¹

B13: VRDN-03103 (antibody, V domains shown)
VH: B1 VH with V61P, D62G
VL: B1 VL
Kd [1]: 12.8 nM
koff [1]: 0.00637 s⁻¹
kon [1]: 498000 M⁻¹ s⁻¹
Kd [2]: 1.44 nM
koff [2]: 0.00216 s⁻¹
kon [2]: 1.5e+06 M⁻¹ s⁻¹

Further binders by falling Kd [1], results first:

Kd [1]: 4.71 nM
koff [1]: 0.000362 s⁻¹
kon [1]: 77000 M⁻¹ s⁻¹
Kd [2]: 2.06 nM
koff [2]: 0.000479 s⁻¹
kon [2]: 233000 M⁻¹ s⁻¹
B10: VRDN-03111 (antibody, V domains shown)
VH: B1 VH
VL: B1 VL with L4M, L13V, D70E, E79Q, P80S

Kd [1]: 2.97 nM
koff [1]: 0.000322 s⁻¹
kon [1]: 109000 M⁻¹ s⁻¹
Kd [2]: 2.74 nM
koff [2]: 0.000463 s⁻¹
kon [2]: 169000 M⁻¹ s⁻¹
B12: VRDN-03112 (antibody, V domains shown)
VH: B1 VH with V61P, D62G
VL: B1 VL with L4M, L13V, D70E, E79Q, P80S

Kd [1]: 2.69 nM
koff [1]: 0.000156 s⁻¹
kon [1]: 58000 M⁻¹ s⁻¹
Kd [2]: 1.42 nM
koff [2]: 0.000344 s⁻¹
kon [2]: 242000 M⁻¹ s⁻¹
B11: VRDN-03107 (antibody, V domains shown)
VH: B1 VH with D31S, T33S, V61A
VL: B1 VL with L4M, L13V, D70E, E79Q, P80S

Kd [1]: 0.89 nM
koff [1]: 0.000361 s⁻¹
kon [1]: 405000 M⁻¹ s⁻¹
Kd [2]: 1.99 nM
koff [2]: 0.000281 s⁻¹
kon [2]: 141000 M⁻¹ s⁻¹
B2: VRDN-03105 (antibody, V domains shown)
VH: B1 VH with Y32H, T33Y, H35D
VL: B1 VL

— patent US20240352133A1
